Read-outs that look alike come from different tables or passages of the source.
How the values were obtained:
[1] = target: baboon EL (baboon); assay: cell-based or functional assay
[2] = target: cynomolgus monkey EL (cynomolgus monkey); assay: cell-based or functional assay
[3] = target: rabbit EL (rabbit); assay: cell-based or functional assay
[4] = target: human-mouse chimeric EL (construct not specified); assay: cell-based or functional assay
[5] = target: T1, cynomolgus monkey EL (cynomolgus monkey); assay: Biacore; EL captured by anti-C2-tag Ab; bivalent fit
T1 construct: Heparin extract; also called cynomolgus EL; Cynomolgus EL
Protocol: (§1) The binding affinities of anti-EL antibodies were measured using Biacore. […] Then, anti-EL antibodies were added and the binding affinities were calculated by bivalent fitting of BIAevaluation software.

[6] = target: T1, cynomolgus monkey EL; assay: ELISA: antibody captured on anti-mouse IgG-Fc plate, EL heparin extract added, detection with biotin anti-C2-tag antibody and HRP-streptavidin, A450
Protocol: (§2) Assay buffer containing 15 μl of anti-EL antibody was added to anti-mouse IgG-Fc antibody-immobilized microtiter plate, and incubated for 2 hr. […] After washing the wells three times with 90 μL of washing buffer, 15 μl of assay buffer containing biotin-labeled anti-C2-tag antibody and HRP-labeled Streptavidin were added to the wells and incubated at room temperature for 1 hr. After washing the wells three times with 90 μL of washing buffer, 15 μL of TMB+—Substrate—Chromogen (DAKO) was added and incubated at room temperature for 30 min and then 15 μL of 0.05 M H2SO₄ was added and absorbance at 450 nm was measured (FIG. 3A to 3K).

[7] = target: T2, mouse EL (mouse, UniProt Q9WVG5 21-500); assay: as above
T2 construct: Heparin extract
T2 sequence (looked up): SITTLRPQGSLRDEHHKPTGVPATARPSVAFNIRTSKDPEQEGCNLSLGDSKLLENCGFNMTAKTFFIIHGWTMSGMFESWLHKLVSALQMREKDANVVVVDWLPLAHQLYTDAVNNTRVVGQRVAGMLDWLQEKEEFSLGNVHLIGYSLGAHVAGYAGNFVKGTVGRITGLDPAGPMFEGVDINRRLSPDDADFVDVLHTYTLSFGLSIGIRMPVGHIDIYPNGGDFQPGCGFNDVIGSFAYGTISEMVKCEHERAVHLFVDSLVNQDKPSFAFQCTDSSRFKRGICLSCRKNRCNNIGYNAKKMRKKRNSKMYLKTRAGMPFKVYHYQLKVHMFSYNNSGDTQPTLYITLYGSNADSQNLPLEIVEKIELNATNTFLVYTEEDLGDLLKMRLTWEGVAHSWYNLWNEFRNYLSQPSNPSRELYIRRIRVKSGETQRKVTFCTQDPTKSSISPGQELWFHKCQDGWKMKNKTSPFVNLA
Protocol: as §2

[8] = target: T3, human [1-157]-mouse chimeric EL (human; mouse, UniProt Q9WVG5 158-500); assay: as above
T3 construct: Heparin extract, detected by an anti-C2-tag antibody
T3 sequence: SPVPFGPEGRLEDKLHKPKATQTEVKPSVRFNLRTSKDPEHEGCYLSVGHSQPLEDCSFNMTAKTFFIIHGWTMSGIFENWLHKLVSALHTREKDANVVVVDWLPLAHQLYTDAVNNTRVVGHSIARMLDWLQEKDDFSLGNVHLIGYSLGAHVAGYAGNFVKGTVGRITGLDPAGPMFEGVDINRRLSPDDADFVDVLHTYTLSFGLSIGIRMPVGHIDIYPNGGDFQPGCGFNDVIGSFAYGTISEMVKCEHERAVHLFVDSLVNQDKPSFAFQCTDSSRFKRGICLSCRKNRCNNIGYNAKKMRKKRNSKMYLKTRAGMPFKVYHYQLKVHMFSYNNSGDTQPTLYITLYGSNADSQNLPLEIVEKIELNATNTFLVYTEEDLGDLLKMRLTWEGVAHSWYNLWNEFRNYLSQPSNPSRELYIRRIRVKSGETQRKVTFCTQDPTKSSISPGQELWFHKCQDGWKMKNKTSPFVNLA
Protocol: as §2

[9] = target: T4, human [1-305]-mouse chimeric EL (human; mouse, UniProt Q9WVG5 306-500); assay: as above
T4 construct: Heparin extract, captured or detected by an anti-C2-tag antibody; also called human-mouse chimeric EL
T4 sequence: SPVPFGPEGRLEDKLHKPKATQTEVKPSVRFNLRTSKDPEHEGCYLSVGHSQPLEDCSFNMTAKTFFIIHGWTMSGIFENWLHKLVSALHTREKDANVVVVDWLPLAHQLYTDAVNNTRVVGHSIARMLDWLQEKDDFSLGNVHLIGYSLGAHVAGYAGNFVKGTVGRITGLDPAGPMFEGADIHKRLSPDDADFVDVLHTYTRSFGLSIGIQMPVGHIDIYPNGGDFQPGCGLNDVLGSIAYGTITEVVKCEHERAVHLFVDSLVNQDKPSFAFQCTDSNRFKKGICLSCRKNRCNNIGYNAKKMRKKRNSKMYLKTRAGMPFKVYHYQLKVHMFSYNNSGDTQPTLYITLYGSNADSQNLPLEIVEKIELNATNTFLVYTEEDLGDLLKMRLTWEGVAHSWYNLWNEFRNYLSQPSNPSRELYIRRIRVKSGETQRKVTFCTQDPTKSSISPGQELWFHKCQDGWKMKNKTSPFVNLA
Protocol: as §2

[10] = target: T5, baboon EL (baboon); assay: Biacore; EL captured by anti-C2-tag Ab; bivalent fit
T5 construct: Heparin extract
Protocol: as §1

[11] = target: T4, human [1-305]-mouse chimeric EL; assay: as above
Protocol: as §1

[12] = target: T5, baboon EL; assay: ELISA: antibody captured on anti-mouse IgG-Fc plate, EL heparin extract added, detection with biotin anti-C2-tag antibody and HRP-streptavidin, A450
Protocol: as §2

[13] = target: T6, human [202-500]-mouse chimeric EL (mouse; human, UniProt Q9WVG5 21-201); assay: as above
T6 construct: Heparin extract, detected by an anti-C2-tag antibody
T6 sequence: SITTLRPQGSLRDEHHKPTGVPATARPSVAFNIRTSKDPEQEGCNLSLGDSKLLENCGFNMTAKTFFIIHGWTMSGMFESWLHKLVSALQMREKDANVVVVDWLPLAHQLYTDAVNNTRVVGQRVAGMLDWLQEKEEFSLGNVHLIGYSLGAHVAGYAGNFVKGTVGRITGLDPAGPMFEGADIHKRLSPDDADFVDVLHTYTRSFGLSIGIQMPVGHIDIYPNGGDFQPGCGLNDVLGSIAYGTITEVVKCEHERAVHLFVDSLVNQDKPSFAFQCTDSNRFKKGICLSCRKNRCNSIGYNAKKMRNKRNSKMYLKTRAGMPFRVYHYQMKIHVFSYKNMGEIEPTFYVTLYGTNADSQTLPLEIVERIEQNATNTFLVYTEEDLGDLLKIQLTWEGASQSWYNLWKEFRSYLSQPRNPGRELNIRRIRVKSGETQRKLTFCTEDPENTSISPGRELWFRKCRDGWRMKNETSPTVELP
Protocol: as §2

[14] = target: T4, human [1-305]-mouse chimeric EL; assay: cell-based or functional assay
[15] = target: T1, cynomolgus monkey EL; assay: cell-based or functional assay; remark: listed apart in the source

Binder | Neutralizing activity IC50 [1] | Neutralizing activity IC50 [2] | Neutralizing activity IC50 [3] | Neutralizing activity IC50 [4] | Kd [5] | koff [5] | kon [5] | EC50 (read off the curve) [6] | binding result [7] | EC50 (read off the curve) [9] | Kd [10] | koff [10] | kon [10] | Kd [11] | koff [11] | kon [11] | EC50 (read off the curve) [12] | EC50 (read off the curve) [13] | further results
14E1 (antibody, mouse IgG1, V domains shown, mouse IgG1 from hybridoma) VH: QVQLQQSGAELVKPGASVRLSCKASGYTFTKYTIHWVKQRSGQGLEWIGWFYPGSDSIKYNEKFKDKATLTADKSSRTVYMELSRLTSEDSAVYFCARHEEYTNSLAYWGQGTLVTVSA VL: DIQMTQTTSSLSASLGDRVTISCRASQDISNYLNWYQQQPDGTVKLLIYYTSRLHSGVPSRFSGSGSGTDYSLTISNLEQEDIATYFCQQGYTLPWTFGGGTNLEIK | 3.3 nM | 2.4 nM | 5.9 nM | 1.4 nM | 5.9 nM | 0.00069 s⁻¹ | 120000 M⁻¹ s⁻¹ | ~10 ng/mL |  | ~7 ng/mL | 5.8 nM | 0.00085 s⁻¹ | 150000 M⁻¹ s⁻¹ | 5.4 nM | 0.00023 s⁻¹ | 42000 M⁻¹ s⁻¹ | ~20 ng/mL | ~20 ng/mL | 
16B3 (antibody, mouse IgG2a, V domains shown, mouse IgG2a from hybridoma; also called 16B3 (mouse mAb)) VH: DVKLVESGGGLVQPGGSLKLSCTASGFTFSGYTMSWVRQTPEKRLELVAEISFARDRAFYPDTVKGRFTISRDNAKNTLYLQMSSLKSEDTAMYYCTRLGGRNHDYWYFDVWGTGTTVTVSS VL: DIVLTQSPTSLAVSPGQRATISCRASESVEYYGTSLMQWYQQKPGQRPQLLIYAASNVESGVPARFSGSGSGTDFSLNIHPVEEDDIAVYFCQQSWKVPFTFGSGTKLEIK | 3 nM | 1.9 nM | 6.3 nM | 1.3 nM | 2.1 nM | 8.9e-05 s⁻¹ | 42000 M⁻¹ s⁻¹ | ~4 ng/mL | no binding (tested: about 330 ng/mL) | ~3 ng/mL | 3.2 nM | 9.8e-05 s⁻¹ | 31000 M⁻¹ s⁻¹ | 3.7 nM | 0.00019 s⁻¹ | 51000 M⁻¹ s⁻¹ | ~5 ng/mL | ~4 ng/mL | Neutralizing activity IC50 [14]: 1.3 nM; Neutralizing activity IC50 [15]: 1.8 nM

Continued, in another order:

Neutralizing activity IC50 [1] | Neutralizing activity IC50 [2] | Neutralizing activity IC50 [3] | Neutralizing activity IC50 [4] | Kd [5] | koff [5] | kon [5] | EC50 (read off the curve) [6] | binding result [7] | EC50 (read off the curve) [9] | Kd [10] | koff [10] | kon [10] | Kd [11] | koff [11] | kon [11] | EC50 (read off the curve) [12] | EC50 (read off the curve) [13] | Binder | further results
2 nM | 1.7 nM | 5.7 nM | 2.4 nM | 3.3 nM | 0.00018 s⁻¹ | 55000 M⁻¹ s⁻¹ | ~30 ng/mL | no binding (tested: about 330 ng/mL) | ~6 ng/mL |  |  |  |  |  |  |  |  | 19E7 (antibody, mouse IgG2a, V domains shown, mouse IgG2a from hybridoma; also called 19E1(19E7)) VH: QVQLQQPGSVLVRPGASVKLSCKASGYTFTTYWMHWVKQRPGQGLEWIGEIHPYSGNNNNNEKFKGKATLTVDTSSSTAYVDLSRLTSEDSAVYYCARYDSNYVFAYWGQGTLVTVSA VL: QIVLTQSPAIMSASPGEGVTITCSASSSVSYMHWFQQKPGTSPKLWIYSTSNLASGVPARFSGSGSGTSYSLTISRMEAEDAATYYCQQRDSYLTFGSGTKLEVK | binding result [8]: no binding (tested: about 330 ng/mL)
2.1 nM | 2.5 nM | > 40 nM | 1.1 nM |  |  |  | ~6 ng/mL |  | ~6 ng/mL | 4.7 nM | 0.00025 s⁻¹ | 53000 M⁻¹ s⁻¹ | 1.1 nM | 0.0001 s⁻¹ | 95000 M⁻¹ s⁻¹ |  | ~8 ng/mL | 16E7 (antibody, mouse IgG1, V domains shown, mouse IgG1 from hybridoma) VH: EVKLVESGGGLVQPGGSLKLSCAASGFTFSSYTMSWVRQTPEKRLELVAEISFTRSRAFYPDTVKGRFTISRDNAKNTLYLQMSSLKSEDTAMYYCARLGGNNYDYWYFDVWGTGTTVTVSS VL: DIVLTQSPTSLAVSLGQRATISCRASESVEYYGTSLMQWYQQKPGQRPKLLIYAASNVESGVPARFSGSGSGTDFSLNIHPVEEDDIAMYFCQQSWKVPFTFGSGTKLEIK | 

From US20200071424A1 (SHIONOGI, published 2020)
